The record followed here is patent US11155602B2, “Polypeptides targeting HIV fusion” (priority 2015, dated 2021).

Where a chain is given by its changes, count along the chain named.

The experiment deals with NL-Rluc virus. In words: Combinectin potency assay: antiviral EC50, NL-Rluc virus in MT-2 cells, luciferase readout. In kind it is cell-based, HIV-1. How it is done: MT-2 cells, HEK 293T cells and the proviral DNA clone of […] were obtained from the NIH AIDS Research and Reference Reagent Program. MT-2 cells were propagated in RPMI 1640 medium supplemented with 10% heat-inactivated fetal bovine serum (FBS), 10 mM HEPES buffer pH 7.55, and 2 mM L-glutamine. HEK 293T cells were propagated in DMEM media supplemented with 10% heat-inactivated FBS, 10 mM HEPES buffer pH 7.55 and 2 mM L-glutamine. Recombinant NL-Rluc virus, in which a section of the nef gene from the proviral clone of NL4-3 was replaced with the Renilla luciferase gene, was constructed at Bristol-Myers Squibb. The replication-competent virus was harvested 3 days after transfection of HEK 293T cells with the modified pNL-Rluc proviral clone. Transfections were performed using Lipofectamine Plus (Invitrogen, Carlsbad, Calif.), according to manufacturer's instruction. Virus was titered in MT-2 cells using luciferase enzyme activity as a biomarker. The NL-Rluc virus used to infect MT-2 cells a multiplicity of 0.01 for 1 hour before adding to the peptides in 96-well plates. Peptides were serially diluted three-fold and 11 concentrations were plated in triplicate. After 4-5 days of incubation, cells were processed and quantitated for virus growth by the amount of expressed luciferase. Luciferase was quantitated using the Dual Luciferase kit from Promega (Madison, Wis.), with modifications to the manufacturer's protocol. The diluted Passive Lysis solution was pre-mixed with the re-suspended Luciferase Assay Reagent and then re-suspended in STOP & GLO® Substrate (2:1:1 ratio). A total of […] of the mixture was added to each aspirated well on assay plates and luciferase activity was measured immediately on a Wallac TriLux (Perkin-Elmer, Waltham, Mass.). The 50% effective concentration (EC50) was calculated by comparing the amount of luciferase produced in the presence of inhibitory peptide compared to wells where no peptide was added.

One may read the EC50 as the concentration needed to bring the measured effect to its halfway point.

B1: 364 (protein)
chain: MGHHHHHHGGSVSDVPRDLEVVAATPTSLLISWEYKVHPYRYYRITYGETGGNSPVQEFTVPSVLSTATISGLKPGVDYTITVYAVTYGDPSAPISINYRTEID
modifications: Adnectin
With B1, for the setting “Anti-N17 Adnectin, Table 3”, the concentration giving a half-maximal response (EC50) amounted to 89 nM.

B2: 371 (protein)
chain: B1 chain with D90I, P91D, A93T
modifications: Adnectin
With B2, the concentration for a half-maximal effect (EC50) (Anti-N17 Adnectin, Table 3) was determined as 114 nM.

B3: 369 (protein)
chain: B1 chain
modifications: Adnectin
Turning to B3, under “Anti-N17 Adnectin, Table 3”, the EC50 was 155 nM.

B4: 365 (protein)
chain: B1 chain with H38S, P39G, P91D
modifications: Adnectin
Regarding B4, the EC50 (Anti-N17 Adnectin, Table 3) is more than 1000 nM.

B5: 370 (protein)
chain: B1 chain with P91D, A93K
modifications: Adnectin
For the molecule B5, the EC50 (Anti-N17 Adnectin, Table 3) was found to be 335 nM.

B6: 368 (protein)
chain: B1 chain with D90T, P91D
modifications: Adnectin
Turning to B6, the EC50 (Anti-N17 Adnectin, Table 3) was found to be 62 nM.

B7: 366 (protein)
chain: B1 chain with H38Y, P39H, Y40N, P91D
modifications: Adnectin
As for B7, the EC50 (Anti-N17 Adnectin, Table 3) was more than 1000 nM.

B8: 367 (protein)
chain: B1 chain with T67S, T69Q, I70L, P91D
modifications: Adnectin
Turning to B8, the EC50 (Anti-N17 Adnectin, Table 3) was determined as 300 nM.

B9: 102 (protein)
chain: MASTSGSSPYLMPYDLEVVAATPTSLFIRWYGSASSIVKFRITYGETGGNSPVQEFTVGGTQLHATISGLKPGVDYTITVYAVHFEHKYSELWIGHPISINYRTEGSGSHHHHHH
modifications: Adnectin
Turning to B9, for the setting “Anti-CD4 Adnectin, Table 2”, the EC50 was more than 5500 nM.

B10: 140 (protein)
chain: MGVSDVPRDLEVVAATPTSLLISWDLLEDMSRYYRITYGETGGNSPVQEFTVPTDAYTATISGLKPGVDYTITVYAVTQDSHVIELSYPISINYRTEIDKPSQHHHHHH
modifications: Adnectin
With B10, the EC50 (Anti-N17 Adnectin, Table 3) amounted to 950 nM.

B11: 99 (protein)
chain: MGHHHHHHGGVSDVPRDLEVVAATPTSLLISWDAPAVTVHSYHIQYWPLGSYQRYQVFSVPGSKSTATISGLKPGVEYQIRVYAETGGADSDQSFGWIQIGYRTPES
modifications: Adnectin
With B11, the EC50 (Anti-CD4 Adnectin, Table 2) was found to be 8.5 nM.

B12: 110 (protein)
chain: B11 chain with G88R, A89G, D90E, F95L, P105E
modifications: Adnectin
As for B12, the EC50 (Anti-CD4 Adnectin, Table 2) turned out to be 28.6 nM.

B13: 111 (protein)
chain: B11 chain with G88R, A89G, D90E, P105E
modifications: Adnectin
For B13, the half-maximal effective concentration (EC50) (Anti-CD4 Adnectin, Table 2) was found to be 20 nM.

B14: 114 (protein)
chain: B11 chain with S41A, S51F, R54G, G88L, A89G, S91A, D92H, F95L
modifications: Adnectin
As for B14, where the note is “Anti-CD4 Adnectin, Table 2”, the EC50 was determined as 12.6 nM.

B15: 112 (protein)
chain: B11 chain with G88R, A89G, D90E, F95L
modifications: Adnectin
For the molecule B15, under “Anti-CD4 Adnectin, Table 2”, the EC50 was found to be 18.4 nM.

B16: 113 (protein)
chain: B11 chain with G88R, A89G, D90E
modifications: Adnectin
For B16, where the note is “Anti-CD4 Adnectin, Table 2”, the EC50 was determined as 15.4 nM.

B17: 96 (protein)
chain: MGVSDVPRDLEVVAATPTSLLISWDAPAVTVQSYHIQYWPLGSYQRYQVFSVPGSKSTATISGLKPGVEYQIRVYAETGGADSDQSMGWIQIGYRTEGDKPSQHHHHHH
modifications: Adnectin
With B17, the EC50 (Anti-CD4 Adnectin, Table 2) is 7.8 nM.

B18: 98 (protein)
chain: B17 chain with Q32H
modifications: Adnectin
Consider B18, for which the concentration giving a half-maximal response (EC50) (Anti-CD4 Adnectin, Table 2) stood at 4.9 nM.

B19: 97 (protein)
chain: B17 chain with Q32H, S43W, G79R, G80S, A81G, D82L, S83A, Q85E, M87F
modifications: Adnectin
As for B19, the EC50 (Anti-CD4 Adnectin, Table 2) was 11 nM.

B20: 116 (protein)
chain: MASTSGVSDVPRDLEVVAATPTSLLISWDAPAVTVEQYYIAYYVEGEPSSYQYFRVPGSKSTATISGLKPGVLYHIYVNAVTGSGLRPEFSLPIRIKYRTEGSGSHHHHHH
modifications: Adnectin
For the molecule B20, the 50% effective concentration (EC50) (Anti-N17 Adnectin, Table 3) was 50 nM.

B21: 109 (protein)
chain: MGVSDVPRDLEVVAATPTSLLISWDYPTVTPRYYRITYGETGGNSPVQEFTVPEYIGTATISGLKPGVDYTITVYAVTNDTTIYSISRPISINYRTEIDKPSQHHHHHH
modifications: Adnectin
With B21, the EC50 (Anti-CD4 Adnectin, Table 2) worked out at 320 nM.

B22: 103 (protein)
chain: MASTSGYTSYPIPYDLEVVAATPTSLYIHWYWIAATIISFRITYGETGGNSPVQEFTVPAGQDHATISGLKPGVDYTITVYAVHYEEEYSEFWTGHPISINYRTEGSGSHHHHHH
modifications: Adnectin
For the molecule B22, the EC50 (Anti-CD4 Adnectin, Table 2) amounted to 255 nM.

B23: 105 (protein)
chain: MASTSGEFYHTKYPYDLEVVAATPTSLEISWRSPTRDWQWFRITYGETGGNSPVQEFTVAGPYRNAIISGLKPGVDYTITVYADVYMPSEGGLVVDTYHPISINYRTEGSGSHHHHHH
modifications: Adnectin
For B23, the EC50 (Anti-CD4 Adnectin, Table 2) is 300 nM.

B24: 100 (protein)
chain: MASTSGSSSYLMPSDLEVVAATPTSLYIHWYPIASTIINFRITYGETGGNSPVQEFTVPGSQVHATISGLKPGVDYTITVYAVHYEHKYSELWMGHPISINYRTEGSGSHHHHHH
modifications: Adnectin
On to B24, for which, where the note is “Anti-CD4 Adnectin, Table 2”, the EC50 worked out at 6 nM.

B25: 141 (protein)
chain: MGVSDVPRDLEVVAATPTSLLISWQYKVHPYRYYRITYGETGGNSPVQEFTVPSVLSTATISGLKPGVDYTITVYAVTYGIQSPPISINYRTEIDKPSQHHHHHH
modifications: Adnectin
Consider B25, for which the EC50 (Anti-N17 Adnectin, Table 3) is 3 nM.

B26: 142 (protein)
chain: B25 chain with Q25R, K27R, Y79D, I81V, P84S
modifications: Adnectin
For the molecule B26, the EC50 (Anti-N17 Adnectin, Table 3) worked out at 55 nM.

B27: 143 (protein)
chain: B25 chain with Q25E, K27N, H29N, Q82E, P84S
modifications: Adnectin
Consider B27, for which the EC50 (Anti-N17 Adnectin, Table 3) is 20 nM.

B28: 106 (protein)
chain: MASTSGQAYPEYYFVDLEVVAATPTSLLISWSKPYYNAYSYRITYGETGGNSPVQEFTVLGHDTRAVISGLKPGVDYTITVYAMFIEYIDQEIWHAHPISINYRTEGSGSHHHHHH
modifications: Adnectin
In the case of B28, the EC50 (Anti-CD4 Adnectin, Table 2) turned out to be 2400 nM.

B29: 107 (protein)
chain: MGVSDVPRDLEVVAATPTSLLISWDEHTDIYRYYRITYGETGGNSPVQEFTVPAMEHTATISGLKPGVDYTITVYAVTHVYPIMIHQYPISINYRTEIDKPSQHHHHHH
modifications: Adnectin
Regarding B29, the EC50 (Anti-CD4 Adnectin, Table 2) turned out to be 500 nM.

B30: 104 (protein)
chain: MASTSGTHWFYSIPHDLEVVAATPTSLTIAWEPPHHTAMGYRITYGETGGNSPVQEFTVPGGYTTAYISGLKPGVDYTITVYAAYYEREYSEHWISHPISINYRTEGSGSHHHHHH
modifications: Adnectin
As for B30, the EC50 (Anti-CD4 Adnectin, Table 2) was found to be 500 nM.

B31: 95 (protein)
chain: MASTSGVSDVPRDLEVVAATPTSLLISWDAPAVTVHSYHIQYWPLGWYQRYQVFSVPGSKSTATISGLKPEVEYQIRVYAETGGGGSQQSFGWIQIGYRTEGSGSHHHHHH
modifications: Adnectin
With B31, the EC50 (Anti-CD4 Adnectin, Table 2) was 48 nM.

B32: 101 (protein)
chain: MASTSGSASYLIPSDLEVVAATPTSLSIYWYPVASTIINFRITYVETGGNSPVQEFTVPGSKSTATISGLKPGVDYTITVYAVHYEQKYSEYWIGHPISINYRTEGSGSHHHHHH
modifications: Adnectin
Consider B32, for which the 50% effective concentration (EC50) (Anti-CD4 Adnectin, Table 2) was more than 400 nM.

B33: 108 (protein)
chain: MASTSGVSDVPRDLEVVAATPTSLLISWDAPAVTVLEYQIDYHPAAVWHALQRFTVPGSKSTATISGLKPGVHYKISVTATTHADNESIMWHPISIYYRTEGSGSHHHHHH
modifications: Adnectin
Turning to B33, for the setting “Anti-CD4 Adnectin, Table 2”, the EC50 stood at 170 nM.

B34: 139 (protein)
chain: MGVSDVPRDLEVVAATPTSLLISWEDPEAAVRYYRITYGETGGNSPVQEFTVPINDLHSYLSGLKPGVDYTITVYAVTEATVMYVLDEPISINYRTEIDKPSQHHHHHH
modifications: Adnectin
As for B34, under “Anti-N17 Adnectin, Table 3”, the EC50 came to 130 nM.
